Laboratory results taken from patent US20240327544A1 (BIONTECH, published 2024).
Values joined by “and” are separate entries in the source; they are usually repeats but may differ in a detail not shown here. Equal entries are not always repeated.

Tests used:
[1] = molecular target: human PD-1, full-length, expressed on cells (human, UniProt Q15116 25-288); test: cell-based or functional assay
[2] = molecular target: T1, C1q (complement protein C1q from human serum) (human, UniProt P02745 23-245; P02746 28-253; P02747 29-245); test: flow cytometry, activated human CD8+ T cells, FITC anti-C1q
T1 construct: Human serum (20%) was the source of C1q
T1 sequence (P02745 23-245 limits assumed, chain 1 of 3): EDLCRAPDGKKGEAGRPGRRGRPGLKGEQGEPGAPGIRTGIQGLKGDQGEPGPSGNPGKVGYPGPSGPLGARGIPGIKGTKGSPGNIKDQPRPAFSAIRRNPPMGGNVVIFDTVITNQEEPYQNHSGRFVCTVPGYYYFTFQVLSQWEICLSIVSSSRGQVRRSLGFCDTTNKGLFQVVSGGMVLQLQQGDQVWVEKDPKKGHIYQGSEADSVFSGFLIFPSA
T1 sequence (P02746 28-253 limits assumed, chain 2 of 3): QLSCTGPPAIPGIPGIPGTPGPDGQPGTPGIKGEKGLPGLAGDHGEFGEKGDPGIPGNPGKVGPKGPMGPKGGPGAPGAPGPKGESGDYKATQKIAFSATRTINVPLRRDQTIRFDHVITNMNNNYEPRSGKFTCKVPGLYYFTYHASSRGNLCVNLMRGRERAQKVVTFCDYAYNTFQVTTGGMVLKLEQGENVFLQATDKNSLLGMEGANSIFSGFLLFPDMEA
T1 sequence (P02747 29-245 limits assumed, chain 3 of 3): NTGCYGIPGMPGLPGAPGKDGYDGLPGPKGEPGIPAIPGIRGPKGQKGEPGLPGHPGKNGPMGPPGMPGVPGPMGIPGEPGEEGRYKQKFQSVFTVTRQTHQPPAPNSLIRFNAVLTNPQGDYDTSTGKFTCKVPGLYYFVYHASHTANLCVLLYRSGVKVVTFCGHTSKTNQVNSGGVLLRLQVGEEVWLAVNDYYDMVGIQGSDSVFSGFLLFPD

human PD-1, full-length, expressed on cells, sequence (Q15116 25-288 limits assumed): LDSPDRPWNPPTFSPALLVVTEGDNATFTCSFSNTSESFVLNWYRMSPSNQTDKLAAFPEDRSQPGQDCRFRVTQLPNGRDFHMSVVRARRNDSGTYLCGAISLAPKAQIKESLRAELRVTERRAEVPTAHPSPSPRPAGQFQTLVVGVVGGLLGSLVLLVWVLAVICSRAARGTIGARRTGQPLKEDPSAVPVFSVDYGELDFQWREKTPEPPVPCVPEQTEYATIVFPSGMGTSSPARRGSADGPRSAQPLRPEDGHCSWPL

B1: IgG1-PD1 (antibody)
heavy: QVQLVESGGGLVQPGTSLRLSCSVSGFSLYSYNMGWVRQAPGKGLEYIGIISGGTIGHYASWAKGRFTISRDTSKTTLYLQMNSLTTEDTATYFCARAFYDDYDYNVWGPGTLVTVSSASTKGPSVFPLAPSSKSTSGGTAALGCLVKDYFPEPVTVSWNSGALTSGVHTFPAVLQSSGLYSLSSVVTVPSSSLGTQTYICNVNHKPSNTKVDKRVEPKSCDKTHTCPPCPAPEFERGPSVFLFPPKPKDTLMISRTPEVTCVVVDVSHEDPEVKFNWYVDGVEVHNAKTKPREEQYNSTYRVVSVLTVLHQDWLNGKEYKCKVSNKALPAPIEKTISKAKGQPREPQVYTLPPSREEMTKNQVSLTCLVKGFYPSDIAVEWESNGQPENNYKTTPPVLDSDGSFFLYSKLTVDKSRWQQGNVFSCSVMHEALHNHYTQKSLSLSPG
light: AIQLTQSPSSLSASVGGTVTITCQSSQSVYGNNQLSWYQQKPGQPPKLLIYQASKLETGVPSRFRGSGSGTQFTLTISSLQSEDFATYYCAGGYSSSSDTTFGGGTEVVVKRTVAAPSVFIFPPSDEQLKSGTASVVCLLNNFYPREAKVQWKVDNALQSGNSQESVTEQDSKDSTYSLSSTLTLSKADYEKHKVYACEVTHQGLSSPVTKSFNRGEC
notes: Humanized rabbit anti-PD-1 antibody, Fc-inert IgG1 kappa; also called MAB-19-0618 variable regions in a human IgG1m(f) L234F/L235E/G236R (FER) backbone
[1]
  EC50 of PD-1/PD-L1 checkpoint blockade (luminescence, PD-1/PD-L1 blockade reporter assay): 0.165 µg/mL and 1.12 nM
[2]
  binding result: no binding (tested: antibody up to 30 µg/mL, 20% human serum)
